The test system of test [1] is ob/ob mice. The test can be described thus: Insulin tolerance test after 4 weeks of chronic FGF-1 administration. The conditions noted are these: after 4 weeks of chronic administration. Type of test: in vivo, mouse. Here is the method:
Glucose tolerance tests (GTT) were conducted after overnight fasting. Mice were injected intraperitoneally (i.p.) with 1 g of glucose per/kg body weight, and blood glucose was monitored at 0, 15, 30, 60, 90, and 120 min using a OneTouch Ultra glucometer (Lifescan Inc). Insulin tolerance tests (ITT) were conducted after overnight fasting. Mice were injected i.p. with 0.5 U of insulin/kg body weight (Humulin R; Eli Lilly), and blood glucose was monitored at 0, 15, 30, 60, 90, and 120 min using a OneTouch Ultra glucometer (Lifescan Inc). Real-time metabolic analyses were conducted in an undisturbed room under 12 h/12 h light/dark cycles using a Comprehensive Lab Animal Monitoring System (Columbus Instruments).
These tests were carried out as described above.

Test [2] has as its system diet-induced obesity mice (C57BL/6). The test is described as follows: Single s.c. FGF-1 injection, blood glucose in DIO mice. The format is in vivo, mouse. The conditions noted are these: single s.c. injection 0.5 mg/kg. From the text:
FIG. 25. FGF1 effects in DIO mice.
(§1) The ob/ob model is considered to represent a very severe diabetic disease. In order to investigate the effect of FGF-1 on less severe diabetic/metabolic disorder models, we tested blood glucose levels in db/db mice and diet induced obese mice.

Test [3] has as its system ob/ob mice. The test is described as follows: Single s.c. injection of human FGF1 or other FGFs, blood glucose in ob/ob mice (Examples 13, 14). The conditions noted are these: 0.5 mg/kg s.c. The format is in vivo, mouse. As for the experimental part:
FIG. 26. Human recombinant FGF-1 is effective in mice.
FIG. 27. Comparison of FGF1, FGF2, FGF9, and FGF10 effects. Single subcutaneous injection of FGFs (0.5 mg/kg) in ob/ob mice.
As human recombinant FGF-1 is already being used in the clinic, the present methods of using it to treat metabolic disorders offer a straightforward regulatory path to treatment.
As explained above, the FGF family of factors bind to members of the FGFR family of receptors with different specificities. FGF-1 binds preferentially to FGFR1 and FGFR4, and can be internalized into a cell expressing these receptors. To determine if other FGF proteins have similar metabolic effects as FGF-1, we tested blood glucose in ob/ob mice treated with FGF-2, FGF-9, and FGF-10 (0.5 mg/kg s.c.). This combination of FGF proteins binds to the spectrum of FGFRs.

For test [4], the system named is ob/ob mice. The test can be described thus: Acute effects of FGF-1 on blood glucose: dose response and time courses after s.c. and i.v. administration (Example 6). The format is in vivo, mouse. Particulars: for duration of blood glucose reduction after intravenous administration: 0.2 mg/kg i.v. As for the experimental part: FIG. 8. Dose response effect of FGF-1 (s.c., mg/kg) on blood glucose levels of ob/ob mice.
FIG. 9. Effect of FGF-1 (s.c., 0.5 mg/kg) on blood glucose levels of ob/ob mice.
FIG. 10. Effect of intravenous FGF1 (0.2 mg/kg) on blood glucose levels of ob/ob mice.
In order to establish the acute effects of FGF-1 on blood glucose levels, dose response curves (FIG. 8) and time courses after subcutaneous (FIG. 9) and intravenous (FIG. 10) administration were performed.

The test system of test [5] is Glucose Transporter 1 (Glut1). The test can be described thus: Glut1 expression in 3T3-L1 adipocytes. The format is cell-based, mouse. As for the experimental part:
FIGS. 6A-6B. FGF-1 and rosiglitazone stimulation of Glut1 expression in 3T3-L1 adipocytes. 3T3-L1 adipocytes were treated with FGF-1 (+=50 ng/ml, ++=100 ng/ml), rosiglitazone (1 μM), or in combination. (A) mRNA (top) and protein (bottom) levels of Glucose Transporter 1 (Glut1); (B) mRNA (top) and protein (bottom) levels of Glucose Transporter 4 (Glut4).
3T3-L1 mouse pre-adipocytes were from American Type Culture Collection (ATCC, Rockville, Md.). Cells were maintained at sub-confluence in growth medium (GM) containing 10% calf serum in Dulbecco's modified Eagle's medium (DMEM) at 37° C. and 5% CO2. For standard adipocyte differentiation, cells were stimulated at 2 days post confluency (referred as day 0) with differentiation medium (DM) containing 10% fetal bovine serum (FBS), 5 μg/ml insulin, 1 μM dexamethasone, and […] 3-isobutyl-1-methylxanthine (IBMX) for 48 hours. […]
Total RNA was isolated from mouse tissue and cells using TRIzol reagent (Invitrogen). cDNA was synthesized from 1 μg of DNase-treated total RNA using SuperScript II reverse transcriptase (Invitrogen). mRNA levels were quantified by QPCR with SYBR Green (Invitrogen). Samples were run in technical triplicates, and relative mRNA levels were calculated by using the standard curve methodology and normalized against 36B4 mRNA levels in the same samples.

The test system of test [6] is db/db leptin receptor mutant diabetic mice. The test can be described thus: Single s.c. FGF-1 injection, blood glucose in db/db mice. Type of test: in vivo, mouse. The conditions noted are these: single s.c. injection 0.5 mg/kg.
Description: FIG. 24. FGF-1 effects in db/db mice. […] The db/db model is considered to represent a […] diabetes model than ob/ob.
as §1

“Also recorded” adds a separate entry of the source.

B1: FGF-1: recombinant mouse FGF-1 (acidic fibroblast growth factor), a secreted protein that binds heparin and FGF receptors (protein, UniProt P61148 16-155, looked up)
Fibroblast growth factor 1: FNLPLGNYKKPKLLYCSNGGHFLRILPDGTVDGTRDRSDQHIQLQLSAESAGEVYIKGTETGQYLAMDTEGLLYGSQTPNEECLFLERLEENHYNTYTSKKHAEKNWFVGLKKNGSCKRGPRTHYGQKAILFLPLPVSSD
In the case of B1, the “insulin tolerance / insulin sensitivity (ITT)” value in the test on ob/ob mice [1] is given as “increased insulin sensitivity”. Further, the “blood glucose in diet-induced obesity mice” value in test [2] (0.5 mg/kg) was “effective for reducing blood glucose levels in both systems”. For the same molecule, the “blood glucose in diet-induced obesity mice” value in test [2] (listed as FGF1, 0.5 mg/kg) is given as “normalizes blood glucose”. Also, in the test on ob/ob mice [3], the “blood glucose in ob/ob mice after a single s.c. injection” value is “Only FGF1 has glucose normalizing effects”. Further, in the test with ob/ob mice [4] (ob/ob mice), the “duration of blood glucose reduction after intravenous administration” value was “significantly reduced blood glucose for at least one week; also recorded: much longer lasting (at least one week)” and the “dose dependence of glucose reduction” value is given as “dramatic dose-dependent reduction of glucose levels”. In the test with ob/ob mice [4] (ob/ob mice, listed as FGF1), the “duration of blood glucose reduction after intravenous administration” value is “last up to one week”. For the same molecule, the “EC50 of glucose lowering effect” value in the test on ob/ob mice [4] (s.c., blood glucose of ob/ob mice, dose response) was 0.25 mg/kg. In addition, in the test on ob/ob mice [4] (s.c., ob/ob mice), the “dose at which maximum glucose lowering effects are reached” value stood at 0.5 mg/kg and the “onset of effect of subcutaneous dosing” value is listed as “effective within a matter of hours”. Besides, the “expression of GLUT1 in combination with rosiglitazone” value in test [5] (3T3-L1 adipocytes, FGF-1 plus rosiglitazone (1 μM)) is given as “acts synergistically with rosiglitazone”. In addition, the “expression of GLUT1” value in test [5] (mouse 3T3-L1 adipocytes, prolonged treatment, FGF-1 50 or 100 ng/ml) is “induces the expression of GLUT1”. Further, in test [6], the “blood glucose in db/db mice” value is reported as “effective for reducing blood glucose levels in both systems; also recorded: normalizes blood glucose”.

The values are drawn from patent US10293027B2, “Methods for treating metabolic disorders using FGF” (Salk Institute for Biological Studies, priority 2010, dated 2019).
